From article PMC10136936 come the findings set out here.

In the test the target is Recombinant hemagglutinin from influenza A/California/04/2009 (H1N1), amino acids 1-519 (Influenza A/California/04/2009 (H1N1)) (UniProt C3W5S1). Description: SEC. A general note: Size exclusion chromatography separates by hydrodynamic size, large species first.

Broadly, the stoichiometry N is a count of units in the complex or per binding partner. On to “Recombinant hemagglutinin from influenza A/California/04/2009 (H1N1), amino acids 1-519 (from UniProt C3W5S1 1-519) (domain or fragment)”, for which the stoichiometry N amounted to 3.
